Bridge positions count the residues as written; N and C are the ends. Ends that are not written are not given here. I, II: the chains in the order shown.

For experiment [1], the target named is rat relaxin family peptide receptor 2 (RXFP2) (rat) (UniProt Q5ECL0).
Experiment [2] deals with human relaxin family peptide receptor 2 (RXFP2) (human) (UniProt Q8WXD0).
In experiment [3] the target is rat relaxin family peptide receptor 2 (RXFP2) (rat) (UniProt Q5ECL0). The source holds these as a separate data set.
In a further experiment the target is RXFP2 mAb 2H3 (rat). In words: SPR; Biacore S200; goat anti-rat Fc gamma immobilised on a Series S CM5 chip, purified recombinant rat anti-RXFP2 antibodies captured at 5 µg/mL; rat or human LDLa-linker protein flowed as analyte at 20, 10, 5, 2.5, 1.75 and 0 nM; 1:1 fit model. In general terms: In SPR one partner is held on a chip, and binding of the other changes the refractive index at the surface.

Experiment [4] has as its target rat relaxin family peptide receptor 2 (RXFP2) (rat) (UniProt Q5ECL0). This is another data set of the same source.
Experiment [5] has the same target. The source holds these as a separate data set.

Sequence of rat relaxin family peptide receptor 2 (RXFP2) (rat) (Q5ECL0 entry or part of it): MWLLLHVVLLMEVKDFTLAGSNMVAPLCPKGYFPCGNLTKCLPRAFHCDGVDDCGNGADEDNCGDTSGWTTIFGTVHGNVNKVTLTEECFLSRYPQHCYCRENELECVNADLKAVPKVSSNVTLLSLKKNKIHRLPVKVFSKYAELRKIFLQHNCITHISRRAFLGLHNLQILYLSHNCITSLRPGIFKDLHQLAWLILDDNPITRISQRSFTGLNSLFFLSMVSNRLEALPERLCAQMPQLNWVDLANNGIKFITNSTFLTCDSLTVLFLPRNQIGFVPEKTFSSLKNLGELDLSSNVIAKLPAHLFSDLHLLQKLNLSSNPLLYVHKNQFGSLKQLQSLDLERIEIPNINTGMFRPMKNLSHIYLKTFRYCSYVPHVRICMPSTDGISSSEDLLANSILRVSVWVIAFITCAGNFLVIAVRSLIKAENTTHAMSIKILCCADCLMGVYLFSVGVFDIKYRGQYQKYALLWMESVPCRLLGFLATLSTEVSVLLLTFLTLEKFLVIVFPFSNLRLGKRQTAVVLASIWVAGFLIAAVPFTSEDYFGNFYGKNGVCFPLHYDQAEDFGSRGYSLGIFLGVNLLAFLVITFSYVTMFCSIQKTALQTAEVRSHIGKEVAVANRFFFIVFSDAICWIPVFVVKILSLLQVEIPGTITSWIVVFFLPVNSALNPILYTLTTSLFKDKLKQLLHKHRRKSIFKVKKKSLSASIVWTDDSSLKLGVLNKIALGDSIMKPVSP
Sequence of human relaxin family peptide receptor 2 (RXFP2) (human) (Q8WXD0 whole entry): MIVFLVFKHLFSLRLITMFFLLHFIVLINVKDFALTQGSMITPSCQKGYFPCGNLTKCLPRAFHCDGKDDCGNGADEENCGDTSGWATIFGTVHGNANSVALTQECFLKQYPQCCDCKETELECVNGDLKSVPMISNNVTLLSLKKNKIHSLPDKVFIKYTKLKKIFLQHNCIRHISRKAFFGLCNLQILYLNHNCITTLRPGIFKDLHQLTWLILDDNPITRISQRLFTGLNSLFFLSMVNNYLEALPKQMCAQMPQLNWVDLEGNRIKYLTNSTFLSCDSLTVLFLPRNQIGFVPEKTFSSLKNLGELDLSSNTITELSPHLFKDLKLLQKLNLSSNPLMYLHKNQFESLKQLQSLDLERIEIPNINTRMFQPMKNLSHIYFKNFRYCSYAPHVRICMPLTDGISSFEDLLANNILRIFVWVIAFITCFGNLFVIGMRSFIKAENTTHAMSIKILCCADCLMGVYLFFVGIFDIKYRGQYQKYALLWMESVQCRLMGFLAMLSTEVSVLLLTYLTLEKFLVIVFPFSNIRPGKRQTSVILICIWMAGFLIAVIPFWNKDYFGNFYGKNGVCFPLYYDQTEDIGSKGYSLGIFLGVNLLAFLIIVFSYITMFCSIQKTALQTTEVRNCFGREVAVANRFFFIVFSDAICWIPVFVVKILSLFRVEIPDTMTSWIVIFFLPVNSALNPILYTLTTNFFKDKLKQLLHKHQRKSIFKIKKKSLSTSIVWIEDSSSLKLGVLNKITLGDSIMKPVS

B1: RXFP2 mAb 4G6 (antibody, V domains shown)
VH: EVQLQQSGPELVKPGASVKLSCKASGYTFTSYVMHWVKQKPEQGLEWIGYKNPSNDGIKYNEKFKGKATLTSDKSSNIAYMELFSLTSEDSAVYYCARSDFGSVWAMDYWGQGTSVTVSS
VL: SIVMTQTPKFLLVSAGDRVTITCKASQSVNDDIVWYQQKPGQSPKLLIYYASNRYTGVPDRFTGSGYGTDFTFTISTVQAGDLAVYFCQQDYSSPFTFGSGTKLEIK
With B1, in experiment [1], the % Max Response, INSL3 (EC80)-stimulated cAMP in HEK293 stably expressing rat RXFP2 stood at 82.5%; the IC50, INSL3 (EC80)-stimulated cAMP in HEK293 stably expressing rat RXFP2 stood at 14.1 nM; the IC50, INSL3-stimulated CYP11B1 mRNA in H295R stably expressing rat RXFP2 amounted to 0.33 nM; the IC50, INSL3-stimulated CYP11B2 mRNA in H295R stably expressing rat RXFP2 came out at 0.1 nM. Besides, in experiment [2], the % Max Response, INSL3 (EC80)-stimulated cAMP in HEK293 stably expressing human RXFP2 was determined as 84.5% and the IC50, INSL3 (EC80)-stimulated cAMP in HEK293 stably expressing human RXFP2 worked out at 15.6 nM. For the same molecule, the IC50, INSL3-induced cortisol release (ELISA) from H295R stably expressing rat RXFP2 in experiment [3] worked out at 0.26 nM.

B2: rat LDLa-linker protein (ratRXFP2-LDLa-linker(20-88)) (domain or fragment)
chain: GSNMVAPLCPKGYFPCGNLTKCLPRAFHCDGVDDCGNGADEDNCGDTSGWTTIFGTVHGNVNKVTLTEE
On to B2, for which the Kd with RXFP2 mAb 2H3 (rat) came out at 582 nM.

B3: Rat INSL3 (ligand)
chain 1: SVATNAVHRCCLTGCTQQDLLGLCPH
chain 2: LRSPQPPEARAKLCGHHLVRALVRVCGGPRWSPEA
modifications: disulfide I:10-I:15, I:11-II:14, I:24-II:26
The molecule B3 showed an EC50, cortisol secretion (ELISA) from H295R cells stably expressing rat RXFP2 in experiment [4] of 0.16 nM. In addition, the EC50, aldosterone secretion (ELISA) from H295R cells stably expressing rat RXFP2 in experiment [5] came out at 2.2 nM.

The term Kd denotes the constant that tells how readily two partners part at equilibrium.

Source of the values: publication PMC11162469, “Discovery of RXFP2 genetic association in resistant hypertensive men and RXFP2 antagonists for the treatment of resistant hypertension” (Scientific Reports, 2024).
